# B1: Shugoshin-1 (Schizosaccharomyces pombe (strain ATCC 38366 / 972)), Q9P7A0 (parent)
# chain: MNFQFINSNINNEDKLPMESLKKKFLKQNREIIKINTQLSIKIRESENEIQDLIQENFTLKSYLVKLEARFRNQSQTEDLLKNFFPEIQTIHKKISQVQSLLKIIEKKCSSDFLEANVKSQFTTCENKDSKEDYQILHNKRLEYVSFNDELKSLETGQPLYCFQDFQKKVHGPPALSEKPGKCILKDKTNAHVNKIPQDEVNYSLPQKNITIFSKELKENEFESINEGETEEEKAKTSNVCVCIPCKSAEQITDLKGQATGDSSPCDFEESQPRINGREKLRRSVKVINYAIPSLRTKLRRDFDLPSDRKRKRHPRGKA
# partner: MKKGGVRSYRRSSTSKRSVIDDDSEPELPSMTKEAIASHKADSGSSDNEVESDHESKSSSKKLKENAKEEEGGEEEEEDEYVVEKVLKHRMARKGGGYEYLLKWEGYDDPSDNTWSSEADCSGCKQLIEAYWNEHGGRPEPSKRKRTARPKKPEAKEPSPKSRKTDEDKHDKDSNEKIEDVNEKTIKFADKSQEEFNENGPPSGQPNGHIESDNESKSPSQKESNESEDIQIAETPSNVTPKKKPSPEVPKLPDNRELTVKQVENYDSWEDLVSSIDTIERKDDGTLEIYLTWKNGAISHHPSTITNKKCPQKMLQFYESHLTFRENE
# B2: Chromatin-associated protein swi6 (Schizosaccharomyces pombe (strain ATCC 38366 / 972)), P40381 (parent)
# chain: B1 partner
# partner: B1 chain
# Variants of: B1
# Details: with swi6_schpo swi6, P40381
row,Variant,effect of a mutation on the interaction
1,MNFQFINSNINNEDKLPMESLKKKFLKQNREIIKINTQLSIKIRESENEIQDLIQENFTLKSYLVKLEARFRNQSQTEDLLKNFFPEIQTIHKKISQVQSLLKIIEKKCSSDFLEANVKSQFTTCENKDSKEDYQILHNKRLEYVSFNDELKSLETGQPLYCFQDFQKKVHGPPALSEKPGKCILKDKTNAHVNKIPQDEVNYSLPQKNITIFSKELKENEFESINEGETEEEKAKTSNVCECIPCKSAEQITDLKGQATGDSSPCDFEESQPRINGREKLRRSVKVINYAIPSLRTKLRRDFDLPSDRKRKRHPRGKA [V242E],disrupting interaction strength

# Variants of: B2
# Details: with sgo1_schpo sgo1, Q9P7A0
row,Variant,effect of a mutation on the interaction
1,MKKGGVRSYRRSSTSKRSVIDDDSEPELPSMTKEAIASHKADSGSSDNEVESDHESKSSSKKLKENAKEEEGGEEEEEDEYVVEKVLKHRMARKGGGYEYLLKWEGYDDPSDNTWSSEADCSGCKQLIEAYWNEHGGRPEPSKRKRTARPKKPEAKEPSPKSRKTDEDKHDKDSNEKIEDVNEKTIKFADKSQEEFNENGPPSGQPNGHIESDNESKSPSQKESNESEDIQIAETPSNVTPKKKPSPEVPKLPDNRELTVKQVENYDSWEDLVSSIDTIERKDDGTLEIYLTWKNGAISHHPSTITNKKCPQKMLQFYESHLTARENE [F324A],disrupting interaction strength

# Source: IntAct's records for PubMed 18716626
